Paper PMC10786891, “Massively parallel profiling of RNA-targeting CRISPR-Cas13d”
Residue numbers refer to the chain shown, from its start. Names and notes keep the numbering of the source.

T1: EsCas13d, nuclease-dead (Eubacterium siraeum, UniProt B0MS50, R295A;H300A;R849A;H854A)
T1 sequence: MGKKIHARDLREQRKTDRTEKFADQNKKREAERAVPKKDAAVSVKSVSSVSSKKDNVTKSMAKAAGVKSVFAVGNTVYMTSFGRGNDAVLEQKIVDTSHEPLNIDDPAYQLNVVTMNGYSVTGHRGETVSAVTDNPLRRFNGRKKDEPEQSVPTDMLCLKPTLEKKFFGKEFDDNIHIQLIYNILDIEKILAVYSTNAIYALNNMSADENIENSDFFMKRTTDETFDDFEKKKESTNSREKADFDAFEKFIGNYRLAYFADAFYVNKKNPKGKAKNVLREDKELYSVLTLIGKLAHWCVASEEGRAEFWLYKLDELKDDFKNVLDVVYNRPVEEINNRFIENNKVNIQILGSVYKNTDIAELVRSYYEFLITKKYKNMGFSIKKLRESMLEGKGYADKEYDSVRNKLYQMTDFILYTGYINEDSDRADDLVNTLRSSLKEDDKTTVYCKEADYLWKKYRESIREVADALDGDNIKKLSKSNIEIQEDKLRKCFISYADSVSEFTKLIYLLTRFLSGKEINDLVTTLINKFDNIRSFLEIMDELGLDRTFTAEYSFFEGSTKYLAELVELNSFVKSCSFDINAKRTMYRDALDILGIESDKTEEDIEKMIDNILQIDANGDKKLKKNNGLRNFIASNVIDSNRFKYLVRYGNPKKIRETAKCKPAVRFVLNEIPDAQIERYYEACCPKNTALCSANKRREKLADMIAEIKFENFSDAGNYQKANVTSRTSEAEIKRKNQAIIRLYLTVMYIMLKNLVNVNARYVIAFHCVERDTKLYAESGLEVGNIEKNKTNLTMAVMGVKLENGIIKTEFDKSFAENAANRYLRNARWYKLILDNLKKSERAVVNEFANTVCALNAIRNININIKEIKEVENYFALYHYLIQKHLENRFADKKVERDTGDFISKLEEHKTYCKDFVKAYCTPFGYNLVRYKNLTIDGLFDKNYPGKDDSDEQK

B1: target 1 insU 3' of 12,insC 3' of 3 (mixed)
RNA 1: CACCCGUGCAAAAAUGCAGGGGUCUAAAACUGAGCGGAUAACCUCUCUAUGG
RNA 2: GGGAAUGGAUCCACAUCUACGAAUUCGUACCAUAGAGAGGUUUAUCCGCUCCACCGAGAUCGGAAGAGCACACGU
B2: target 1 insA 3' of 10,insU 3' of 5 (mixed)
RNA 1: B1 RNA 1
RNA 2: B1 RNA 2 with U43A, C49U, U50C, C51U
B3: target 1 C4U,U10C (mixed)
RNA 1: B1 RNA 1
RNA 2: GGGAAUGGAUCCACAUCUACGAAUUCGUACCAUAGAGAGGUCAUCCGUUCACCGAGAUCGGAAGAGCACACGU
B4: target 1 insC 3' of 19,insC 3' of 11 (mixed)
RNA 1: B1 RNA 1
RNA 2: GGGAAUGGAUCCACAUCUACGAAUUCGUACCAUCAGAGAGGUCUAUCCGCUCACCGAGAUCGGAAGAGCACACGU
B5: target 1 insC 3' of 22,insA 3' of 12 (mixed)
RNA 1: B1 RNA 1
RNA 2: B4 RNA 2 with A32C, U33A, C34U, U42A, C43U
B6: target 1 G5U,A16C (mixed)
RNA 1: B1 RNA 1
RNA 2: B3 RNA 2 with A36C, C42U, G47U, U48C
B7: target 1 C6U,U10A (mixed)
RNA 1: B1 RNA 1
RNA 2: B3 RNA 2 with C42A, C46U, U48C
B8: target 1 G12A,A18C (mixed)
RNA 1: B1 RNA 1
RNA 2: B3 RNA 2 with A34C, G40A, C42U, U48C
B9: target 1 insC 3' of 22,insG 3' of 16 (mixed)
RNA 1: B1 RNA 1
RNA 2: B4 RNA 2 with A32C, U33A, C34U, A39G, G40A, U42G, C43U
B10: target 1 insC 3' of 13,insA 3' of 11 (mixed)
RNA 1: B1 RNA 1
RNA 2: B4 RNA 2 with C34A, A35G, G36A, A37G, G38A, A39G, G40C, C43A
B11: target 1 insC 3' of 19,insU 3' of 9 (mixed)
RNA 1: B1 RNA 1
RNA 2: B4 RNA 2 with C43U, U44A, A45U
B12: target 1 insU 3' of 17,insU 3' of 6 (mixed)
RNA 1: B1 RNA 1
RNA 2: B4 RNA 2 with C34A, A35G, G36U, C43U, U44A, A45U, U46C, C48U
B13: target 1 C7G,G13A (mixed)
RNA 1: B1 RNA 1
RNA 2: B3 RNA 2 with G39A, C42U, C45G, U48C
B14: target 1 U19A (mixed)
RNA 1: B1 RNA 1
RNA 2: B3 RNA 2 with U33A, C42U, U48C
B15: target 1 insA 3' of 10,insU 3' of 7 (mixed)
RNA 1: B1 RNA 1
RNA 2: B1 RNA 2 with U43A, C47U, G48C, C49G, U50C, C51U
B16: target 1 G17A,A18C (mixed)
RNA 1: B1 RNA 1
RNA 2: B3 RNA 2 with A34C, G35A, C42U, U48C
B17: target 1 U11C,C21A (mixed)
RNA 1: B1 RNA 1
RNA 2: B3 RNA 2 with C31A, U41C, C42U, U48C
B18: target 1 insU 3' of 7,insU 3' of 2 (mixed)
RNA 1: B1 RNA 1
RNA 2: B1 RNA 2 with U43A, A44U, U45C, C46U, C52U
B19: target 1 C2A,C7G (mixed)
RNA 1: B1 RNA 1
RNA 2: B3 RNA 2 with C42U, C45G, U48C, C50A
B20: target 1 U8G,G12C (mixed)
RNA 1: B1 RNA 1
RNA 2: B3 RNA 2 with G40C, C42U, U44G, U48C
B21: target 1 insC 3' of 14,insG 3' of 10 (mixed)
RNA 1: B1 RNA 1
RNA 2: B4 RNA 2 with C34A, A35G, G36A, A37G, G38A, A39C, C43U, U44G
B22: target 1 A9C,C21U (mixed)
RNA 1: B1 RNA 1
RNA 2: B3 RNA 2 with C31U, C42U, A43C, U48C
B23: target 1 insU 3' of 22 (mixed)
RNA 1: B1 RNA 1
RNA 2: GGGAAUGGAUCCACAUCUACGAAUUCGUACUCAUAGAGAGGUUAUCCGCUCACCGAGAUCGGAAGAGCACACGU
B24: target 1 insU 3' of 15,insU 3' of 12 (mixed)
RNA 1: B1 RNA 1
RNA 2: B4 RNA 2 with C34A, A35G, G36A, A37G, G38U, C43U
B25: target 1 insG 3' of 18,insA 3' of 2 (mixed)
RNA 1: B1 RNA 1
RNA 2: B1 RNA 2 with A36G, G37A, A38G, G39A, U41G, C52A
B26: target 1 insU 3' of 15,insU 3' of 9 (mixed)
RNA 1: B1 RNA 1
RNA 2: B1 RNA 2 with A38U, G39A, U41G, C46U, G48C, C49G, U50C, C51U
B27: target 1 insG 3' of 22,insA 3' of 6 (mixed)
RNA 1: B1 RNA 1
RNA 2: B4 RNA 2 with C31G, A32C, U33A, C34U, C43U, U44A, A45U, U46C, C48A
B28: target 1 insA 3' of 12,insA 3' of 3 (mixed)
RNA 1: B1 RNA 1
RNA 2: B1 RNA 2 with U41A, C51A
B29: target 1 C6G,C7G (mixed)
RNA 1: B1 RNA 1
RNA 2: B3 RNA 2 with C42U, C45G, C46G, U48C
B30: target 1 insG 3' of 6 (mixed)
RNA 1: B1 RNA 1
RNA 2: GGGAAUGGAUCCACAUCUACGAAUUCGUACCAUAGAGAGGUUAUCCGGCUCACCGAGAUCGGAAGAGCACACGU
B31: target 1 insA 3' of 19,insG 3' of 4 (mixed)
RNA 1: B1 RNA 1
RNA 2: B1 RNA 2 with G35A, A36G, G37A, A38G, G39A, U41G, U50G, C51U
B32: target 1 U10C,A16C (mixed)
RNA 1: B1 RNA 1
RNA 2: B3 RNA 2 with A36C, U48C
B33: target 1 A1U,G15C (mixed)
RNA 1: B1 RNA 1
RNA 2: B3 RNA 2 with G37C, C42U, U48C, A51U

target: T1, EsCas13d, nuclease-dead; test: crRNA (strand 1, pre-loaded); Mg2+; 40 mM Tris-HCl pH 7.5, 150 mM NaCl, 6 mM MgCl2, 1 mM DTT, 0.1% Tween-20, 0.2 mg/ml BSA; 25 C; 10 min per concentration, then washed; conditions: tags: His6-TwinStrep-SUMO cleaved; N-terminal SNAP kept (SNAP-Surface 488); label: 3' end held by stalled T7 RNA polymerase

| Binder | Kd [nM] |
| --- | --- |
| B1 | 8.3 ± 0.6 |
| B2 | 14.2 ± 1.1 |
| B3 | 52 ± 23 |
| B4 | 48 ± 9 |
| B5 | 42 ± 5 |
| B6 | 60 ± 7 |
| B7 | 9.8 ± 0.4 |
| B8 | 51 ± 7 |
| B9 | 75 ± 21 |
| B10 | 19.1 ± 2.2 |
| B11 | ~80 |
| B12 | 29.7 ± 2.9 |
| B13 | 15.8 ± 1.5 |
| B14 | 28.8 ± 1.5 |
| B15 | 39.3 ± 2.6 |
| B16 | 67 ± 10 |
| B17 | 51 ± 6 |

| Binder | Kd [nM] |
| --- | --- |
| B18 | 21.3 ± 1.1 |
| B19 | 15.4 ± 0.9 |
| B20 | 16.4 ± 0.8 |
| B21 | 43 ± 10 |
| B22 | 9.9 ± 0.4 |
| B23 | 38 ± 5 |
| B24 | 8.1 ± 0.4 |
| B25 | 73 ± 25 |
| B26 | 59 ± 16 |
| B27 | 54 ± 18 |
| B28 | 20.5 ± 1.2 |
| B29 | 13.3 ± 0.7 |
| B30 | 11.4 ± 0.5 |
| B31 | 15.1 ± 0.7 |
| B32 | 95 ± 8 |
| B33 | 56 ± 24 |
